Experimental data as given in patent publication US20230303699A1 (EXELIXIS, published 2023).
Positions count from the first letter of the chain named. Each block holds one binder with its values, some of them ahead of it.

Columns and labels:
[1] = biological target: T1, PD-L1 on PD-L1 overexpressing CHO-K1 cells (Homo sapiens (Human), UniProt Q9NZQ7 19-290); test: flow cytometry on PD-L1 CHO-K1 cells
Procedure: (§1) Cells were harvested at 70-90% confluence on the day of the assay. Cells were collected by centrifugation at 200×g for 5 minutes and media was removed. Cells were resuspended at 2×10⁶ cells per mL in cold PBS. […] 50 μL per well of the antibody dilution was plated in a 96 well V-bottom plate (Costar 3897). 50 μL per well of cell suspension was added. Plates were placed at 4° C. for 45-60 minutes.
(§2) Cells were collected by centrifugation at 400×g for 7 minutes and primary antibody was removed. […] Plates were placed at 4° C. for 30 minutes.
(§3) Cells were collected by centrifugation at 400×g for 7 minutes and secondary antibody was removed. Cells were resuspended in 50 μL per well of PBS and analyzed by flow cytometry. Binding curves were calculated using the mean fluorescence intensity (MFI) of the FITC fluorescence signal on the cells.

Mouse PD-L1 = biological target: T2, Mouse PD-L1 (mouse, UniProt Q9EP73 19-238, biotinylated); test: Octet BLI; biotinylated mouse PD-L1 on streptavidin sensor
T2 construct: Bought, biotinylated and immobilized on a streptavidin sensor; also called mPD-L1; Acro Cat. No. PD1-M5220

[2] = biological target: T1, PD-L1 on PD-L1 overexpressing CHO-K1 …; test: cell-based or functional assay
[3] = biological target: T3, human PD-L1-His tag (extracellular domain) (human, UniProt Q9NZQ7 19-238); test: Octet BLI, monovalent; IgG on Fc capture sensor, soluble PD-L1-His
T3 construct: Bought from Acro Biosystems; also called Acro Cat. No. PD1H5229; soluble antigen
Source text: The bivalent interaction of binders to the biotinylated human PD-L1 (see Example 1) immobilized on a streptavidin biosensor was monitored using an Octet (Pall ForteBio) instrument. To monitor monovalent interaction, full-length IgG molecule was immobilized to a Fc capture biosensor and its interaction with soluble antigen was monitored using an Octet instrument.
First, the antibodies were immobilized on an Fc capture sensor. In the next association step, the binding interaction of PD-L1 (Acro Cat. No. PD1H5229 (PD-L1-His tag)) to the immobilized IgG was measured. […] Octet kinetic analysis software was used to calculate the kinetic and equilibrium binding constants from the rate of association and dissociation curves. The analysis was performed using global curve fit where kinetic constants were derived simultaneously from all analyte concentration included in the experiment.

[4] = biological target: T1, PD-L1 on PD-L1 overexpressing CHO-K1 …; test: cell-based or functional assay; remark: listed apart in the source
[5] = biological target: T1, PD-L1 on PD-L1 overexpressing CHO-K1 …; test: flow cytometry on PD-L1 overexpressing CHO-K1 cells, AF488 goat anti human IgG Fab secondary, MFI
Procedure: as §1, §2, §3

T3 sequence (Q9NZQ7 19-238): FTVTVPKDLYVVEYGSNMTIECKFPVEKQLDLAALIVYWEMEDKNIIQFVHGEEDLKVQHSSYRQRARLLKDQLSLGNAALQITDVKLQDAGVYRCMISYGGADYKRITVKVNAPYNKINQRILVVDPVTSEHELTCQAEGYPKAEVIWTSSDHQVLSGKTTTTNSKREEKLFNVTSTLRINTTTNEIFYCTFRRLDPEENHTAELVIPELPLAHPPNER
T2 sequence (Q9EP73 19-238 limits assumed): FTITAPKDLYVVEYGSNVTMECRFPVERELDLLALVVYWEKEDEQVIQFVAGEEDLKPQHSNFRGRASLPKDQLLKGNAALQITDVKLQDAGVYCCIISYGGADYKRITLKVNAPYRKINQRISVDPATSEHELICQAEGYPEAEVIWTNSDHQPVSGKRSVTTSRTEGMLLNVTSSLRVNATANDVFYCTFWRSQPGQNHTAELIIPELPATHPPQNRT
T1 sequence (Q9NZQ7 19-290 limits assumed): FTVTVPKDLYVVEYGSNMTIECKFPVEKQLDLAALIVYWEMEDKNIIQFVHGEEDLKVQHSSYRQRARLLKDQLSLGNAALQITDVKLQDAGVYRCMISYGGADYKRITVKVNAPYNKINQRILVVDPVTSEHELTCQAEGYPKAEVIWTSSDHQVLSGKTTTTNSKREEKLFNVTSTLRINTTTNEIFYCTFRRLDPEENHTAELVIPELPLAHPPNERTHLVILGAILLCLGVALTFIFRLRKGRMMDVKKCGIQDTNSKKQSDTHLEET

EC50 [1]: 0.523 nM | binding result (Mouse PD-L1): no binding | PD-1/PD-L1 Interaction Blocking Reporter Assay IC50 [2]: 2.43 nM | KD [3]: < 20 nM | Kd [3]: 17.2 nM
B1: antibody designated P22 (antibody, human IgG1, kappa, V domains shown)
VH: EVQLVESGGGLVQPGGSLRLSCAASGFTFSSYYIHWVRQAPGKGLEWVAWITSHGYSTKYADSVKGRFTISADTSKNTAYLQMNSLRAEDTAVYYCARDSVIYGLDYWGQGTLVTAST
VL: DIQMTQSPSSLSASVGDRVTITCRASQSVSSAVAWYQQKPGKAPKLLIYSASSLYSGVPSRFSGSRSGTDFTLTISSLQPEDFATYYCQQYYTSPYTFGQGTKVEIKR
notes: Tested as full length IgG

IC50 (read off the curve) [4]: ~2 nM | EC50 [1]: 0.552 nM | binding result (Mouse PD-L1): no binding | PD-1/PD-L1 Interaction Blocking Reporter Assay IC50 [2]: 1.23 nM | KD [3]: < 20 nM | Kd [3]: 13 nM
B2: antibody designated P31.2 (antibody, human IgG1, kappa, V domains shown)
VH: EVQLVESGGGLVQPGGSLRLSCAASGFTFSSYYIHWVRQAPGKGLEWVATISSGGGFTYYADSVKGRFTISADTSKNTAYLQMNSLRAEDTAVYYCARGYTLTPVLDYWGQGTLVTAST
VL: B1 VL with Y91F, Y92G, T93A, S94E, Y96I
notes: Tested as full length IgG

EC50 [1]: 1.62 nM | EC50 (read off the curve) [5]: ~2 nM | binding result (Mouse PD-L1): no binding | PD-1/PD-L1 Interaction Blocking Reporter Assay IC50 [2]: 4.98 nM | KD [3]: < 20 nM | Kd [3]: 17.5 nM
B3: antibody designated P24 (antibody, human IgG1, kappa, V domains shown)
VH: EVQLVESGGGLVQPGGSLRLSCAASGFTFDQYYIHWVRQAPGKGLEWVAEIYPAGSYTYYADSVKGRFTISADTSKNTAYLQMNSLRAEDTAVYYCARGPYSVRYALDYWGQGTLVTAST
VL: B1 VL with Y91V, Y92S, T93Y
notes: Tested as full length IgG
